Values quoted from earlier work, collected in article PMC3433420.
Where two headings read alike, the source gives them in different places.

How the values were obtained:
Conditions in all cases: cited from earlier work
ABL2 (Homo sapiens) [1] = target: ABL2 (Homo sapiens) (UniProt P42684)
PLCG2-NC (Homo sapiens) = PLCG2-NC (Homo sapiens) (UniProt P16885)
SOCS2 (Homo sapiens) = SOCS2 (Homo sapiens) (UniProt O14508)
NCK1 (Homo sapiens) = NCK1 (Homo sapiens) (UniProt P16333)
SLA2 (Homo sapiens) = SLA2 (Homo sapiens) (UniProt Q9H6Q3)
SLA2 (Homo sapiens), sequence (Q9H6Q3 89-196): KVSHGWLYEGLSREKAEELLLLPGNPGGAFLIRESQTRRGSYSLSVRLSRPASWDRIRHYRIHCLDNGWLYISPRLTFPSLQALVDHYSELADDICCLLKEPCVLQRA

ABL1 (Homo sapiens) = ABL1 (Homo sapiens) (UniProt P00519)
ABL1 (Homo sapiens), sequence (P00519 122-222): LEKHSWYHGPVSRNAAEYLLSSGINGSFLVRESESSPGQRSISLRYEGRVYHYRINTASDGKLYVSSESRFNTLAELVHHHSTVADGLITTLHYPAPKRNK

SHC1-PTB (Homo sapiens) = SHC1-PTB (Homo sapiens) (UniProt P29353)
SHC1-PTB (Homo sapiens), sequence (P29353 483-583): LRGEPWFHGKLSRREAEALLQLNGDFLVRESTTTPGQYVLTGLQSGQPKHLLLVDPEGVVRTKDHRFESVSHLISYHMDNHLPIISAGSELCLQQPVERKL

TNS1 (Homo sapiens) = TNS1 (Homo sapiens) (UniProt Q9HBL0)
TNS1 (Homo sapiens), sequence (Q9HBL0 1562-1681): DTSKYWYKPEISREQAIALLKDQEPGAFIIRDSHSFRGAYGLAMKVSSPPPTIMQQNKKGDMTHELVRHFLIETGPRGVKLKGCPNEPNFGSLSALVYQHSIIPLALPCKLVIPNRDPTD

SH2D3C (Homo sapiens) [2] = target: SH2D3C (Homo sapiens) (UniProt Q8N5H7)
SH2D3C (Homo sapiens), sequence (Q8N5H7 215-324): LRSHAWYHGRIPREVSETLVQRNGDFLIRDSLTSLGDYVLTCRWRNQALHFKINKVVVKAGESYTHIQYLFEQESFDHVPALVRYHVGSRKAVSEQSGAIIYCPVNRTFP

RASA1-NC (Homo sapiens) = RASA1-NC (Homo sapiens) (UniProt P20936)
RASA1-NC (Homo sapiens), sequence (P20936 176-446): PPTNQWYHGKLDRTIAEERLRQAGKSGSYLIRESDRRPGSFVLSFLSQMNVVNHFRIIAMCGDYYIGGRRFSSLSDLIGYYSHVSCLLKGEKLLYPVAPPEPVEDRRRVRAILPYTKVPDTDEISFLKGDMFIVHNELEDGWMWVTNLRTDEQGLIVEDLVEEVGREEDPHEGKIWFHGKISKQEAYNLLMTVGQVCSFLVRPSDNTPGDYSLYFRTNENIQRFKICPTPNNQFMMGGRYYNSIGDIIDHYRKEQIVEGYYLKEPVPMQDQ

GRB7 (Homo sapiens) = GRB7 (Homo sapiens) (UniProt Q14451)
GRB7 (Homo sapiens), sequence (Q14451 426-532): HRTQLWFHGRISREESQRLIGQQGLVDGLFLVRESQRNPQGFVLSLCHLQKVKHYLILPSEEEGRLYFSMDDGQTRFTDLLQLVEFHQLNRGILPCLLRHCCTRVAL

SLA (Homo sapiens) = SLA (Homo sapiens) (UniProt Q13239)
SLA (Homo sapiens), sequence (Q13239 79-180): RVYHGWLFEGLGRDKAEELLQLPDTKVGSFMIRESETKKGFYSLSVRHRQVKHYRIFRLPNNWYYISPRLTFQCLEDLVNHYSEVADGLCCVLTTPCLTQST

PLCG1-NC (Homo sapiens) = PLCG1-NC (Homo sapiens) (UniProt P19174)
PLCG1-NC (Homo sapiens), sequence (P19174 545-761): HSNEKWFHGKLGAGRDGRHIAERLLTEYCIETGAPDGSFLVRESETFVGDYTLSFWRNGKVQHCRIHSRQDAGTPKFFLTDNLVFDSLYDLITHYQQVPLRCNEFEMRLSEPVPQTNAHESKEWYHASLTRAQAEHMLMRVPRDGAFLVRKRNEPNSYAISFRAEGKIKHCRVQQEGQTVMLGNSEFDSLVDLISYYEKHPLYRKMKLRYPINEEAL

TENC1 (Homo sapiens) = TENC1 (Homo sapiens) (UniProt Q63HR2)
TENC1 (Homo sapiens), sequence (Q63HR2 1135-1252): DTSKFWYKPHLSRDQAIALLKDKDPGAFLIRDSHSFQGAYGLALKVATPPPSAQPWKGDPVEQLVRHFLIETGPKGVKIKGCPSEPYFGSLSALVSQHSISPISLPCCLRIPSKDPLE

PIK3R1-C (Homo sapiens) = PIK3R1-C (Homo sapiens) (UniProt P27986)
PIK3R1-C (Homo sapiens), sequence (P27986 328-723): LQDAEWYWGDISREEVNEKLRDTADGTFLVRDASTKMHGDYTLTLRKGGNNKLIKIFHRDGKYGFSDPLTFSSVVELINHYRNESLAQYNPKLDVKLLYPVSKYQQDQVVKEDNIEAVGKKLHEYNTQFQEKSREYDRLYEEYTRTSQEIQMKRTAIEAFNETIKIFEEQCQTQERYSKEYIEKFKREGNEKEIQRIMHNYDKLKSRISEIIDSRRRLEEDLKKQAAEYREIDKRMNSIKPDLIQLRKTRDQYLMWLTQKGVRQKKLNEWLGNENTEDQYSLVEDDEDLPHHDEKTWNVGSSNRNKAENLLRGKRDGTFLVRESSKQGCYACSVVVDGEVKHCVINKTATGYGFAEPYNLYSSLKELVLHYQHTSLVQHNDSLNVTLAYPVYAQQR

SHC3 (Homo sapiens) [3] = target: SHC3 (Homo sapiens) (UniProt Q92529)
SHC3 (Homo sapiens), sequence (Q92529 494-594): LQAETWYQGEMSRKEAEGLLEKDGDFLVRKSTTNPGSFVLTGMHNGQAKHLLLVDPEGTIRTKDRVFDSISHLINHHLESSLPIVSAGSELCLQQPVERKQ

ABL2 (Homo sapiens) [4] = target: ABL2 (Homo sapiens) (UniProt P42684); remark: listed apart in the source
CRK (Homo sapiens) [5] = target: CRK (Homo sapiens) (UniProt P46108)
CRK (Homo sapiens), sequence (P46108 8-123): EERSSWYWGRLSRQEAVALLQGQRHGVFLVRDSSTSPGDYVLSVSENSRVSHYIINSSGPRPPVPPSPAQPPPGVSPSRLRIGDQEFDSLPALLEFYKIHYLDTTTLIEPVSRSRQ

SH2D3A (Homo sapiens) = SH2D3A (Homo sapiens) (UniProt Q9BRG2)
SH2D3A (Homo sapiens), sequence (Q9BRG2 10-119): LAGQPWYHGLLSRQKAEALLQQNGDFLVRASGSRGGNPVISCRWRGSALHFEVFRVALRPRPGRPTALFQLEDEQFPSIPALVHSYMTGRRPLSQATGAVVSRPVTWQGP

SHB (Homo sapiens) = SHB (Homo sapiens) (UniProt Q15464)
SHB (Homo sapiens), sequence (Q15464 405-509): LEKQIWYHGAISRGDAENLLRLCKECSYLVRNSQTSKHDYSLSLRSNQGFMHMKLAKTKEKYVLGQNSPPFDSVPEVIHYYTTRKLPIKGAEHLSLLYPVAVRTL

SH2D3C (Homo sapiens) [6] = target: SH2D3C (Homo sapiens) (UniProt Q8N5H7); remark: listed apart in the source
BLK (Homo sapiens) = BLK (Homo sapiens) (UniProt P51451)
BLK (Homo sapiens), sequence (P51451 119-225): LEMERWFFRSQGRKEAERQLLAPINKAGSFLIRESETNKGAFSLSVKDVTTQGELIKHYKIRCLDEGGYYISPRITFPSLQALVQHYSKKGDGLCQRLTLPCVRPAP

CRK (Homo sapiens) [7] = target: CRK (Homo sapiens) (UniProt P46108); remark: listed apart in the source
PIK3R3-NC (Homo sapiens) = PIK3R3-NC (Homo sapiens) (UniProt Q92569)
LYN (Homo sapiens) = LYN (Homo sapiens) (UniProt P07948)
LYN (Homo sapiens), sequence (P07948 124-231): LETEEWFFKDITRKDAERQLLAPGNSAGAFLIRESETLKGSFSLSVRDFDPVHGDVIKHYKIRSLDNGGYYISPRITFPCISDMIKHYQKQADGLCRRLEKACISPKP

PIK3R1-NC (Homo sapiens) = PIK3R1-NC (Homo sapiens) (UniProt P27986)
PIK3R1-NC (Homo sapiens), sequence (P27986 328-723): as the sequence (P27986 328-723) above

SHC3 (Homo sapiens) [8] = target: SHC3 (Homo sapiens) (UniProt Q92529); remark: listed apart in the source
PIK3R3-N (Homo sapiens) = PIK3R3-N (Homo sapiens) (UniProt Q92569)
SHC2-PTB (Homo sapiens) = SHC2-PTB (Homo sapiens) (UniProt P98077)
SHC2-PTB (Homo sapiens), sequence (P98077 482-582): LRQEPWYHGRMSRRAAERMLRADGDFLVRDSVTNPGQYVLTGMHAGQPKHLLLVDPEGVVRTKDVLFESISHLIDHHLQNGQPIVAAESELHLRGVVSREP

DAPP1 (Homo sapiens) = DAPP1 (Homo sapiens) (UniProt Q9UN19)
DAPP1 (Homo sapiens), sequence (Q9UN19 30-134): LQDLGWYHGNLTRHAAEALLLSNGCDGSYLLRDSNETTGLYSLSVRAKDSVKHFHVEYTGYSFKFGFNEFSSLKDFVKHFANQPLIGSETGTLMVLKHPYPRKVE

ABL2 (Homo sapiens), sequence (P42684 168-268): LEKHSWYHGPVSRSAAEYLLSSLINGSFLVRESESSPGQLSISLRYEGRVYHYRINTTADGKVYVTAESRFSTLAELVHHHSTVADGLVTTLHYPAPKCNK
SOCS2 (Homo sapiens), sequence (O14508 43-161): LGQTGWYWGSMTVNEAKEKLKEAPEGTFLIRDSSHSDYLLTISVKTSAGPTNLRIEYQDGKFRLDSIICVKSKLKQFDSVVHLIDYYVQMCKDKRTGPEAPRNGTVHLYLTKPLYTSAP
PLCG2-NC (Homo sapiens), sequence (P16885 527-740): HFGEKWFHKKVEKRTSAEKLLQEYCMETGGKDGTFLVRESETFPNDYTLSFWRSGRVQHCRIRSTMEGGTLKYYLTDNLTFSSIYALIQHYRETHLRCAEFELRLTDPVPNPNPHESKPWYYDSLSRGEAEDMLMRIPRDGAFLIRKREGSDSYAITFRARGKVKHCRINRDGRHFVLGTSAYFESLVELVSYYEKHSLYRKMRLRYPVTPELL

…pYWDQDPPE
apparent Kd (screen) (ABL2 (Homo sapiens) [1]): 192 nM | apparent Kd (screen) (PLCG2-NC (Homo sapiens)): 263 nM | apparent Kd (screen) (SOCS2 (Homo sapiens)): 2000 nM | apparent Kd (screen) (NCK1 (Homo sapiens)): 2000 nM | apparent Kd (screen) (SLA2 (Homo sapiens)): 2000 nM | apparent Kd (screen) (ABL1 (Homo sapiens)): 1840 nM | apparent Kd (screen) (SHC1-PTB (Homo sapiens)): 88 nM | apparent Kd (screen) (TNS1 (Homo sapiens)): 2000 nM | apparent Kd (screen) (SH2D3C (Homo sapiens) [2]): 705 nM | apparent Kd (screen) (RASA1-NC (Homo sapiens)): 224 nM

…pYEEMRAFQ
apparent Kd (screen) (GRB7 (Homo sapiens)): 1520 nM | apparent Kd (screen) (SLA (Homo sapiens)): 2000 nM | apparent Kd (screen) (PLCG1-NC (Homo sapiens)): 499 nM | apparent Kd (screen) (TENC1 (Homo sapiens)): 2000 nM | apparent Kd (screen) (PIK3R1-C (Homo sapiens)): 64 nM | apparent Kd (screen) (SHC3 (Homo sapiens) [3]): 123 nM

…pYLIPQQGFd
apparent Kd (screen) (ABL2 (Homo sapiens) [4]): 282 nM | apparent Kd (screen) (CRK (Homo sapiens) [5]): 470 nM | apparent Kd (screen) (SH2D3A (Homo sapiens)): 2000 nM | apparent Kd (screen) (SHB (Homo sapiens)): 1990 nM | apparent Kd (screen) (SH2D3C (Homo sapiens) [6]): 2000 nM

…pYLVPQQGF
apparent Kd (screen) (BLK (Homo sapiens)): 597 nM | apparent Kd (screen) (CRK (Homo sapiens) [7]): 2000 nM | apparent Kd (screen) (PIK3R3-NC (Homo sapiens)): 527 nM | apparent Kd (screen) (LYN (Homo sapiens)): 2000 nM | apparent Kd (screen) (PIK3R1-NC (Homo sapiens)): 1640 nM | apparent Kd (screen) (SHC3 (Homo sapiens) [8]): 2000 nM | apparent Kd (screen) (PIK3R3-N (Homo sapiens)): 1930 nM | apparent Kd (screen) (SHC2-PTB (Homo sapiens)): 2000 nM | apparent Kd (screen) (DAPP1 (Homo sapiens)): 2000 nM
